{"source": "paper PMC10572819", "key": {"[1]": {"assay": "Western blot, HEK-293 with BAP31 siRNA", "conditions": "glycan lost; control: WT-EpCAM"}, "[2]": {"assay": "Western blot, HEK-293 co-transfected with BAP31", "conditions": "glycan lost; control: WT-EpCAM"}}, "data": [{"protein": "epithelial cell-adhesion molecule (EpCAM): N76/111/198A (protein) parent chain: MAPPQVLAFGLLLAAATATFAAAQEECVCENYKLAVNCFVNNNRQCQCTSVGAQNTVICSKLAAKCLVMKAEMNGSKLGRRAKPEGALQNNDGLYDPDCDESGLFKAKQCNGTSMCWCVNTAGVRRTDKDTEITCSERVRTYWIIIELKHKAREKPYDSKSLRTALQKEITTRYQLDPKFITSILYENNVITIDLVQNSSQKTQNDVDIADVAYYFEKDVKGESLFHSKKMDLTVNGEQLDLDPGQTLIYYVDEKAPEFSMQGLKAGVIAVIVVVVIAVVAGIVVLVISRKKRMAKYEKAEIKEMGEMHRELNA", "values": [{"measurement": "other: fall in protein level on BAP31 knockdown", "setting": "[1]", "value": "abolishes"}, {"measurement": "other: rise in protein level on BAP31 overexpression", "setting": "[2]", "value": "abolishes"}]}]}
